Starred links: 1 amine or outer side, 2 acyl side, 3 side chain; linkers in the order of their positions; H or OH if unused. Non-standard residues stand in square brackets, D forms with d. TyrEtNAc = (2S)-3-[4-(2-acetamidoethoxy)phenyl]-2-amino-propanoic acid, CC(=O)NCCOc1ccc(C[C@H](N[*:1])C(=O)[*:2])cc1; Phe3Cl4COOH = (S)-4-(2-amino-2-carboxyethyl)-2-chlorobenzoic acid, O=C([C@H](Cc1ccc(C(=O)[*:3])c(Cl)c1)N[*:1])[*:2]; Phe(4-(5-CO2H-2-pyrimidyl)) = N[C@@H](Cc1ccc(-c2ncc(C(=O)O)cn2)cc1)C(=O)O; Phe(4-(4-Ac-piperazinyl)) = CC(=O)N1CCN(c2ccc(C[C@H](N)C(=O)O)cc2)CC1; Trp(4-Cl)(βS-Me) = C[C@@H](c1c[nH]c2cccc(Cl)c12)[C@H](N)C(=O)O; dPro(4R-(4-pyridylmethyl)) = O=C(O)[C@H]1C[C@@H](Cc2ccncc2)CN1; Trp(βS-Me,4-F) = C[C@@H](c1c[nH]c2cccc(F)c12)[C@H](N)C(=O)O; Bip(4'-COOH) = N[C@@H](Cc1ccc(-c2ccc(C(=O)O)cc2)cc1)C(=O)O; Phe(2-Cl,4-COOH) = N[C@@H](Cc1ccc(C(=O)O)cc1Cl)C(=O)O; 1Nal(3S-Me) = C[C@@H](c1cccc2ccccc12)[C@H](N)C(=O)O; Ala(pyrimidin-5-yl) = N[C@@H](Cc1cncnc1)C(=O)O; Phe(4-COOH) = N[C@@H](Cc1ccc(C(=O)O)cc1)C(=O)O; Pro(cis-4-F) = O=C(O)[C@@H]1C[C@H](F)CN1; Ala(4-THP) = N[C@@H](CC1CCOCC1)C(=O)O; d(αMeD) = C[C@@](N)(CC(=O)O)C(=O)O; 4Pal = N[C@@H](Cc1ccncc1)C(=O)O; aThr = C[C@H](O)[C@H](N)C(=O)O; d(αMeS) = C[C@@](N)(CO)C(=O)O; Dab = NCC[C@H](N)C(=O)O; Aib = CC(C)(N)C(=O)O
B1: SEQ ID NO 362 (peptide)
peptide: cyclo([TyrEtNAc][4Pal][Phe(4-COOH)]G[Pro(cis-4-F)][Trp(4-Cl)(βS-Me)][Aib]SW[d(αMeD)][Ala(4-THP)]Q[Dab]G[dPro(4R-(4-pyridylmethyl))])
SMILES: CC(=O)NCCOc1ccc(C[C@@H]2NC(=O)[C@H]3C[C@@H](Cc4ccncc4)CN3C(=O)CNC(=O)[C@H](CCN)NC(=O)[C@H](CCC(N)=O)NC(=O)[C@H](CC3CCOCC3)NC(=O)[C@@](C)(CC(=O)O)NC(=O)[C@H](Cc3c[nH]c4ccccc34)NC(=O)[C@H](CO)NC(=O)C(C)(C)NC(=O)[C@H]([C@@H](C)c3c[nH]c4cccc(Cl)c34)NC(=O)[C@@H]3C[C@H](F)CN3C(=O)CNC(=O)[C@H](Cc3ccc(C(=O)O)cc3)NC(=O)[C@H](Cc3ccncc3)NC2=O)cc1
B2: SEQ ID NO 363 (peptide)
peptide: cyclo([TyrEtNAc][4Pal][Phe(2-Cl,4-COOH)]G[Pro(cis-4-F)][1Nal(3S-Me)][Aib]SW[d(αMeD)][Ala(4-THP)]Q[Dab]G[dPro(4R-(4-pyridylmethyl))])
SMILES: CC(=O)NCCOc1ccc(C[C@@H]2NC(=O)[C@H]3C[C@@H](Cc4ccncc4)CN3C(=O)CNC(=O)[C@H](CCN)NC(=O)[C@H](CCC(N)=O)NC(=O)[C@H](CC3CCOCC3)NC(=O)[C@@](C)(CC(=O)O)NC(=O)[C@H](Cc3c[nH]c4ccccc34)NC(=O)[C@H](CO)NC(=O)C(C)(C)NC(=O)[C@H]([C@@H](C)c3cccc4ccccc34)NC(=O)[C@@H]3C[C@H](F)CN3C(=O)CNC(=O)[C@H](Cc3ccc(C(=O)O)cc3Cl)NC(=O)[C@H](Cc3ccncc3)NC2=O)cc1
B3: SEQ ID NO 364 (peptide)
peptide: cyclo([Bip(4'-COOH)][4Pal][Phe(4-COOH)]G[Pro(cis-4-F)][Trp(βS-Me,4-F)][Aib]SW[d(αMeS)][Ala(4-THP)]Q[Dab]G[dPro(4R-(4-pyridylmethyl))])
SMILES: C[C@@H](c1c[nH]c2cccc(F)c12)[C@@H]1NC(=O)[C@@H]2C[C@H](F)CN2C(=O)CNC(=O)[C@H](Cc2ccc(C(=O)O)cc2)NC(=O)[C@H](Cc2ccncc2)NC(=O)[C@H](Cc2ccc(-c3ccc(C(=O)O)cc3)cc2)NC(=O)[C@H]2C[C@@H](Cc3ccncc3)CN2C(=O)CNC(=O)[C@H](CCN)NC(=O)[C@H](CCC(N)=O)NC(=O)[C@H](CC2CCOCC2)NC(=O)[C@@](C)(CO)NC(=O)[C@H](Cc2c[nH]c3ccccc23)NC(=O)[C@H](CO)NC(=O)C(C)(C)NC1=O
B4: SEQ ID NO 365 (peptide)
peptide: cyclo([Phe(4-(4-Ac-piperazinyl))][4Pal][Phe(2-Cl,4-COOH)]G[Pro(cis-4-F)][Trp(βS-Me,4-F)][Aib]SW[Aib][Ala(pyrimidin-5-yl)]Q[Dab]G[dPro(4R-(4-pyridylmethyl))])
SMILES: CC(=O)N1CCN(c2ccc(C[C@@H]3NC(=O)[C@H]4C[C@@H](Cc5ccncc5)CN4C(=O)CNC(=O)[C@H](CCN)NC(=O)[C@H](CCC(N)=O)NC(=O)[C@H](Cc4cncnc4)NC(=O)C(C)(C)NC(=O)[C@H](Cc4c[nH]c5ccccc45)NC(=O)[C@H](CO)NC(=O)C(C)(C)NC(=O)[C@H]([C@@H](C)c4c[nH]c5cccc(F)c45)NC(=O)[C@@H]4C[C@H](F)CN4C(=O)CNC(=O)[C@H](Cc4ccc(C(=O)O)cc4Cl)NC(=O)[C@H](Cc4ccncc4)NC3=O)cc2)CC1
B5: SEQ ID NO 366 (peptide)
peptide: cyclo([Phe(4-(4-Ac-piperazinyl))][4Pal][Phe(4-COOH)]G[Pro(cis-4-F)][Trp(βS-Me,4-F)][Aib]SW[Aib][Ala(pyrimidin-5-yl)]Q[Dab]G[dPro(4R-(4-pyridylmethyl))])
SMILES: CC(=O)N1CCN(c2ccc(C[C@@H]3NC(=O)[C@H]4C[C@@H](Cc5ccncc5)CN4C(=O)CNC(=O)[C@H](CCN)NC(=O)[C@H](CCC(N)=O)NC(=O)[C@H](Cc4cncnc4)NC(=O)C(C)(C)NC(=O)[C@H](Cc4c[nH]c5ccccc45)NC(=O)[C@H](CO)NC(=O)C(C)(C)NC(=O)[C@H]([C@@H](C)c4c[nH]c5cccc(F)c45)NC(=O)[C@@H]4C[C@H](F)CN4C(=O)CNC(=O)[C@H](Cc4ccc(C(=O)O)cc4)NC(=O)[C@H](Cc4ccncc4)NC3=O)cc2)CC1

Biological target: Recombinant human IL-1β (BioLegend 579404) (human, UniProt P01584 117-269)
Assay: cell-based or functional assay

| Binder | MRC5 IC50 |
| --- | --- |
| cyclo([Bip(4'-COOH)][4Pal][Phe(2-Cl,4-COOH)]G[Pro(cis-4-F)][1Nal(3S-Me)][Aib]SW[d(αMeD)][aThr]Q[Dab]G[dPro(4R-(4-pyridylmethyl))]) (ring closure inferred) [SEQ ID NO 354] | 0.014 nM |
| cyclo([Bip(4'-COOH)][4Pal][Phe(2-Cl,4-COOH)]G[Pro(cis-4-F)][Trp(4-Cl)(βS-Me)][Aib]SW[d(αMeD)][aThr]Q[Dab]G[dPro(4R-(4-pyridylmethyl))]) (ring closure inferred) [SEQ ID NO 355] | 0.013 nM |
| cyclo([Bip(4'-COOH)][4Pal][Phe(2-Cl,4-COOH)]G[Pro(cis-4-F)][Trp(βS-Me,4-F)][Aib]SW[d(αMeD)][aThr]Q[Dab]G[dPro(4R-(4-pyridylmethyl))]) (ring closure inferred) [SEQ ID NO 356] | 0.011 nM |
| cyclo([Bip(4'-COOH)][4Pal][Phe(4-COOH)]G[Pro(cis-4-F)][1Nal(3S-Me)][Aib]SW[d(αMeD)][aThr]Q[Dab]G[dPro(4R-(4-pyridylmethyl))]) (ring closure inferred) [SEQ ID NO 357] | 0.017 nM |
| cyclo([Bip(4'-COOH)][4Pal][Phe(4-COOH)]G[Pro(cis-4-F)][Trp(4-Cl)(βS-Me)][Aib]SW[d(αMeD)][aThr]Q[Dab]G[dPro(4R-(4-pyridylmethyl))]) (ring closure inferred) [SEQ ID NO 358] | 0.013 nM |
| cyclo([Bip(4'-COOH)][4Pal][Phe(4-COOH)]G[Pro(cis-4-F)][Trp(βS-Me,4-F)][Aib]SW[d(αMeD)][aThr]Q[Dab]G[dPro(4R-(4-pyridylmethyl))]) (ring closure inferred) [SEQ ID NO 359] | 0.011 nM |
| cyclo([Phe(4-(5-CO2H-2-pyrimidyl))][4Pal][Phe(2-Cl,4-COOH)]G[Pro(cis-4-F)][1Nal(3S-Me)][Aib]SW[d(αMeD)][Ala(4-THP)]Q[Dab]G[dPro(4R-(4-pyridylmethyl))]) (ring closure inferred) [SEQ ID NO 360] | 0.019 nM |
| cyclo([Phe(4-(5-CO2H-2-pyrimidyl))][4Pal][Phe3Cl4COOH]G[Pro(cis-4-F)][Trp(βS-Me,4-F)][Aib]SW[d(αMeD)][Ala(4-THP)]Q[Dab]G[dPro(4R-(4-pyridylmethyl))]) (ring closure inferred) [SEQ ID NO 361] | 0.022 nM |

Biological target: Recombinant human IL-1β (BioLegend 579404) (human, UniProt P01584 117-269)
Assay: cell-based or functional assay
Remark: another data set of the same source

| Binder | MRC5 IC50 |
| --- | --- |
| B1 | 0.023 nM |
| B2 | 0.021 nM |
| B3 | 0.015 nM |
| B4 | 0.023 nM |
| B5 | 0.021 nM |
| cyclo([TyrEtNAc][4Pal][Phe2Cl4COOH]G[Pro(cis-4-F)][Trp(βS-Me,4-F)][Aib]SW[Aib][Ala(pyrimidin-5-yl)]Q[Dab]G[dPro(4R-(4-pyridylmethyl))]) [SEQ ID NO 367] | 0.017 nM |
